This passage reports protein production results from a protein production outcome set (Wang et al. 2014).

A short description of the data set: label from the status in PepcDB records.
Regarding “MVAVRSAHLNTEGEFVPDAWIASLGIASQQSCERLAETWRYCEQQTQNQPDASLLLWRGIEMVEILSTLSMDNDSMRAALLFPLADANVVDEATLEAAFGKNIVDLVHGVRDMDAIRQLKATQNDSDASEQVDNIRRMLLAMVEDFRCVVIKLAERIAHLREVKDAPEEERVLAAKECTNIYAPLANRLGIGQLKWELEDFCFRYLHPDEYKKIAKLLHERRIDRAQYIDDFVKTLRDAMKEEGVQAEIYGRPKHIYSIWRKMQKKALSFDELFDVRAVRIVVERLQDCYGALGIVHTHYRHMPDEFDDYVANPKPNGYQSIHTVVLGPSGKTLEIQIRTRQMHEDAELGVAAHWKYKEGTAVGGRSGYEGRIAWLRKLLAWQEEVSDSNDVLDEVRSQVFDDRVYVFTPKGDVVDLPAGSTPLDFAYHIHSDIGHRCIGAKIGGRIVPFTYQLHMGDQIEIITQKQPNPSRDWLNPNLGYITTSRGRSKIQNWFRKQDRDKNILAGRQILDDELAHLGVSLKAAEKLLLPRYNVNSLDELLAAIGGGDVRLNQMVNFLQSQLKQPSAEELDREALRQLTQKTHQPPARSNNKDNGRVVVEGVGNLMHHIARCCQPIPGDEITGFITRGRGISIHRADCEQLDELRASSPERIVDAVWGESYSSGYSLVVRVIANDRSGLLRDITTILANEKVNVLGVASRSDTKQQLATIDMDIEIYNLQVLGRVLAKLNQLPDVIDARRQQGA”, the protein production entry is “failed”.

On to “MVDELFCPQCGMLKRRCKCRKRSIRQRNLELLKKVGYKEFLLPLFDTDDEIVLYKVLRPFREKPTEELDFLPSELASCLRKRGIGRLYPFQKEAMIRLMEGRDVVITAPTGFGKTEAFAVPMLWRALHGGKAMVFYPTKALARDQEEKIKFYTSSLGLRAVRFDGDSGREERRAVLSGKCDIILTNPDMVDYHLRNTPAFRRICRELSFIAVDELHTYTGVLGSNMHYLVKRLSRFAEFQIACASATLSNAAEFAEELFDRDFVLVSGEHRKGTLHLIFRYTPSLYSAVREIVTALRNRKIIVFGNSYKSVETINLILRRHGLKSAIHKSGLPKEVREEVEAKFKRGEINIVVSTPTLELGVDIGDVDVVVSELVPYGQMIQRVGRAGRKGQESVGVVILREDDSISTYYRTKPEDYFKEEANGYVERHNEEVMKFQLISMCIEKPVRLEELDRQSAEIMQKLQAQGIVVEREGAFHPTAKAIELSRAFSFRGIGDAVKIYHDGKYIGERALPIAVKELFPGSILVHNGVRYRTVELDLKRLRAEVVELDYGNEITDPLYMTIPRIIEVEDEIEEPVNAVYCSIEINYLVHGYIERDVFDRERKAFHYLDEPVSYTFKTKGFLFSAPFPDPADYEDYYAGSFHALEHVIIETTDAITGGGSREMGGISVPEGDIFVYDASVGGSGLSKLLFKRLRRAFEISKTILESCDCGRVDGCPKCTYSYQCGNNNQPLNRIGALNIAEKVIKGVKRKTDWRKYTDVIEIRYFPLEHHHHHH”, for which the protein production result is on record as “failed”.

For the sequence “MVDQSAVGRRFTPVTAHVEAGRLRYFLDTLGETNPVYRDAAAAKVEGFAAPPVPPTYLFCLEMLDNERPFEFLTALEIDLGRVLHGEQSFTYHAPVMVGDTLTFSPQVTSVTDKKGGAMTLIGVATAVTNQHGVHVADTTRTIVVRNGLEHHHHHH”, the protein production result was “not failed”.

Take “MVDVLWDEIQNLELGQDYPTLFIPNEAYVMVEDRNRLSLIARPLLPRVQNFNAVINALPRAWGLTAHVHGRILDATYVQLLFQTEIYLLSVQRREVWLFNNWFVASQRWEAAPSLNFVTTIDLWVQMRGIPILYVFEKTELEIAQELGEIISLDFHDATSTQIAYIRVRVRFGITDRLRFFQRITFESGETALIRFQYERLRRIYSCFRFTHNLNYYPYRQRFQSIDRERAVFRDSVLRSSFNSQSQMTDSSLQVPLHPPPRVPSSGDAITSGIMRVFEVGESSRGVQDGESHNNMNLGESSKRKNLVILQRDKESRQHKQQETEQRMGGILKPPKKR”: the protein production entry is given as “not failed”.

For the sequence “MVEFLNKKKKSAQRPINLNGSFIFILILTFEFERRVKVDTADIFQRTMMLIGEDGLKKLSNVNIAVCGLGGVGSFAFEALVRCGIQNFVILDKDRVSVSNLNRQLIATVSNIGKSKVDIAYERALDINPFVNVVKVQKEINPENVEELLGNTKIDYIVDAIDDVSAKIALIKFAISRGIKIISSMGMGNRLNPSLLRISDIYSTKNCPLAKKIRSILRKEGIKKLKVVYSEEKPLKPDYKFLKEKTQKAHVPGSISFVPPVAGFLMAYEVVKDLLGW”, the protein production entry was “failed”.

Take “MVEIEYRKTRIKLGDTDLVYEPAEDSFLLADAALKDAKPGMRILEIGTGSGFVSSVLLTNLKEIYLVATEINPHAARCAKMNGVKVIRTDLFKGIKSKNPENLFDLILFNPPYLPTSEEEKVPGWLNYAFDGGISGRDTLDRFLDEVRDYLKLGGEILVLISSITGLDAVKAKMEKLGFEVEVVARKKVSFEELMVVKGKLL”: the protein production entry is listed as “failed”.
